According to patent US20230310603A1 (BEIJING NEUROSURGICAL INSTITUTE, published 2023):

Biological target: T1, CD133 on CD44- and CD133-positive glioma stem cells GSC20 (UniProt O43490 20-865, limits assumed)
T1 sequence (looked up): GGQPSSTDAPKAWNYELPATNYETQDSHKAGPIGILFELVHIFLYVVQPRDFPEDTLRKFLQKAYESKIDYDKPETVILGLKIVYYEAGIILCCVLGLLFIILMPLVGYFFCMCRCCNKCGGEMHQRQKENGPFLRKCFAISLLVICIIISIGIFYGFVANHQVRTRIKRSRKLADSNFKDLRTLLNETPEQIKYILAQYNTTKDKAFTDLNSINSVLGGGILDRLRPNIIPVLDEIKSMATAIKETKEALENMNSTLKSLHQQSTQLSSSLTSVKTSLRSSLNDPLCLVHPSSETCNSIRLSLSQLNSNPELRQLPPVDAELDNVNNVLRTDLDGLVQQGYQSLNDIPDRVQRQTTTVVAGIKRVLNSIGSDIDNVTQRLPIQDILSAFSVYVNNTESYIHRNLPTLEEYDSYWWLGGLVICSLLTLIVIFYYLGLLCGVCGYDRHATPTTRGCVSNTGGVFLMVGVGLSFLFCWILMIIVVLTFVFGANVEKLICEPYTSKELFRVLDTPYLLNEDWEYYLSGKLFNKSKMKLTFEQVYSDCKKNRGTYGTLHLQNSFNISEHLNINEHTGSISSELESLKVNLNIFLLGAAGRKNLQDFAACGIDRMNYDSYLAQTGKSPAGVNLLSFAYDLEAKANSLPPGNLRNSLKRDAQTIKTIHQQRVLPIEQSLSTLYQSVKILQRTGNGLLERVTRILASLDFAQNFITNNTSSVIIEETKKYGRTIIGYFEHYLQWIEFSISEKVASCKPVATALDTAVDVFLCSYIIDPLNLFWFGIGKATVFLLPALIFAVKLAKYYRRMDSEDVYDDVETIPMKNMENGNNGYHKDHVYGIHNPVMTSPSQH
Test: cell-based or functional assay

Binder | Lysis rate of glioma stem cells GSC20 by CAR-T cells (LDH release, 4 h), effect-target ratio 1:1 | Lysis rate of glioma stem cells GSC20 by CAR-T cells (LDH release, 4 h), effect-target ratio 2:1 | Lysis rate of glioma stem cells GSC20 by CAR-T cells (LDH release, 4 h), effect-target ratio 3:1 | Lysis rate of glioma stem cells GSC20 by CAR-T cells (LDH release, 4 h), effect-target ratio 5:1
fusion protein shown in SEQ ID NO. 3 (anti-CD133 single-chain antibody, CD28, CD3), expressed on CAR-T 1 cells (other) QVQLVQSGAEVKKPGASVKVSCKASGYTFTDFEMHWVRQAPGQGLEWMGDIDPGTGDTAYNLKFKGRVTMTTDTSTSTAYMELRSLRSDDTAVYYCALGAFVYWGQGTLVTVSSGSTSGGGSGGGSGGGGSSDVVMTQSPLSLPVTPGEPASISCRSSQSLANSYGNTYLSWYLQKPGQSPQLLIYGISNRFSGVPDRFSGSGSGTDFTLKISRVEAEDVGVYYCLQGTHQPYTFGQGTKLEIKTTTPAPRPPTPAPTIASQPLSLRPEACRPAAGGAVHTRGLDFACDIYIWAPLAGTCGVLLLSLVITLYCRSKRSRLLHSDYMNMTPRRPGPTRKHYQPYAPPRDFAAYRSRVKFSRSADAPAYKQGQNQLYNELNLGRREEYDVLDKRRGRDPEMGGKPRRKNPQEGLYNELQKDKMAEAYSEIGMKGERRRGKGHDGLYQGLSTATKDTYDALHMQALPPR | 6.53% | 26% | 33.5% | 41.4%
fusion protein shown in SEQ ID NO. 5 (anti-CD133 single-chain antibody, CD28, CD3, T2A, anti-TIM3 single-chain antibody), expressed in CAR-T 3 cells (other) QVQLVQSGAEVKKPGASVKVSCKASGYTFTDFEMHWVRQAPGQGLEWMGDIDPGTGDTAYNLKFKGRVTMTTDTSTSTAYMELRSLRSDDTAVYYCALGAFVYWGQGTLVTVSSGSTSGGGSGGGSGGGGSSDVVMTQSPLSLPVTPGEPASISCRSSQSLANSYGNTYLSWYLQKPGQSPQLLIYGISNRFSGVPDRFSGSGSGTDFTLKISRVEAEDVGVYYCLQGTHQPYTFGQGTKLEIKTTTPAPRPPTPAPTIASQPLSLRPEACRPAAGGAVHTRGLDFACDIYIWAPLAGTCGVLLLSLVITLYCRSKRSRLLHSDYMNMTPRRPGPTRKHYQPYAPPRDFAAYRSRVKFSRSADAPAYKQGQNQLYNELNLGRREEYDVLDKRRGRDPEMGGKPRRKNPQEGLYNELQKDKMAEAYSEIGMKGERRRGKGHDGLYQGLSTATKDTYDALHMQALPPREGRGSLLTCGDVEENPGPMTNKCLLQIALLLCFSTTALSQVQLQQSGPGLVKPSHTLSLTCTVSGGSISSGGYYWSWTRQHPGMGLEWIGYISYSGSIYYTPSLKSRLTISVDTSKNQFSLKLSSVTAADTAVYYCASLDSWGSNRDYWGQGTLVTVSSGGGGSEIVLTQSPATLSLSPGERATLSCRASQSVSSYLAWYQQKPGQAPRLLIYDASNRATGIPARFSGSGSGTDFTLTISSLEPEDFAVYYCQQRSNWPLTFGGGTKVEIK | 16.9% | 20.3% | 35.3% | 49.5%
fusion protein shown in SEQ ID NO. 6 (anti-CD133 single-chain antibody, CD28, truncated body of IL7Rα, CD3, T2A, anti-TIM3 single-chain antibody), expressed in … (other) QVQLVQSGAEVKKPGASVKVSCKASGYTFTDFEMHWVRQAPGQGLEWMGDIDPGTGDTAYNLKFKGRVTMTTDTSTSTAYMELRSLRSDDTAVYYCALGAFVYWGQGTLVTVSSGSTSGGGSGGGSGGGGSSDVVMTQSPLSLPVTPGEPASISCRSSQSLANSYGNTYLSWYLQKPGQSPQLLIYGISNRFSGVPDRFSGSGSGTDFTLKISRVEAEDVGVYYCLQGTHQPYTFGQGTKLEIKTTTPAPRPPTPAPTIASQPLSLRPEACRPAAGGAVHTRGLDFACDIYIWAPLAGTCGVLLLSLVITLYCRSKRSRLLHSDYMNMTPRRPGPTRKHYQPYAPPRDFAAYRSKKRIKPIVWPSLPDHKKTLEHLCKKPRKNLNVSFNPESFLDCQIHRVDDIQARDEVEGFLQDTFPQQLEESEKQRLLGSNQEEAYVTMSSFYQNQRVKFSRSADAPAYKQGQNQLYNELNLGRREEYDVLDKRRGRDPEMGGKPRRKNPQEGLYNELQKDKMAEAYSEIGMKGERRRGKGHDGLYQGLSTATKDTYDALHMQALPPREGRGSLLTCGDVEENPGPMTNKCLLQIALLLCFSTTALSQVQLQQSGPGLVKPSHTLSLTCTVSGGSISSGGYYWSWTRQHPGMGLEWIGYISYSGSIYYTPSLKSRLTISVDTSKNQFSLKLSSVTAADTAVYYCASLDSWGSNRDYWGQGTLVTVSSGGGGSEIVLTQSPATLSLSPGERATLSCRASQSVSSYLAWYQQKPGQAPRLLIYDASNRATGIPARFSGSGSGTDFTLTISSLEPEDFAVYYCQQRSNWPLTFGGGTKVEIK | 31.4% | 36.8% | 69.6% | 87.2%
fusion protein shown in SEQ ID NO. 4 (anti-CD133 single-chain antibody, CD28, truncated body of IL7Rα, CD3), expressed on CAR-T 2 cells (other) QVQLVQSGAEVKKPGASVKVSCKASGYTFTDFEMHWVRQAPGQGLEWMGDIDPGTGDTAYNLKFKGRVTMTTDTSTSTAYMELRSLRSDDTAVYYCALGAFVYWGQGTLVTVSSGSTSGGGSGGGSGGGGSSDVVMTQSPLSLPVTPGEPASISCRSSQSLANSYGNTYLSWYLQKPGQSPQLLIYGISNRFSGVPDRFSGSGSGTDFTLKISRVEAEDVGVYYCLQGTHQPYTFGQGTKLEIKTTTPAPRPPTPAPTIASQPLSLRPEACRPAAGGAVHTRGLDFACDIYIWAPLAGTCGVLLLSLVITLYCRSKRSRLLHSDYMNMTPRRPGPTRKHYQPYAPPRDFAAYRSKKRIKPIVWPSLPDHKKTLEHLCKKPRKNLNVSFNPESFLDCQIHRVDDIQARDEVEGFLQDTFPQQLEESEKQRLLGSNQEEAYVTMSSFYQNQRVKFSRSADAPAYKQGQNQLYNELNLGRREEYDVLDKRRGRDPEMGGKPRRKNPQEGLYNELQKDKMAEAYSEIGMKGERRRGKGHDGLYQGLSTATKDTYDALHMQALPPR | 16.3% | 28% | 39.6% | 43.4%
